The source of these data is PMC3514216, “SRC Homology 2 Domain Binding Sites in Insulin, IGF-1 and FGF receptor mediated signaling networks reveal an extensive potential interactome” (Cell Communication and Signaling : CCS, 2012).

“And” between values parts separate entries of the source, which are not always exact repeats. Identical values can stand only once.

The target of experiment [1] is p130Cas (Y664) (Homo sapiens) (UniProt P56945). As to conditions: cited from earlier work.
The target in experiment [2] is IRS-1 (Y896) (Homo sapiens) (UniProt P35568). Conditions: cited from earlier work.
Experiment [3] has as its target IRS-1 (Homo sapiens) (UniProt P35568). As to conditions: cited from earlier work.
Experiment [4] addresses ShcA (Y426) (Homo sapiens) (UniProt P29353). As to conditions: cited from earlier work.
In experiment [5] the target is p130Cas (Y362) (Homo sapiens) (UniProt P56945). Conditions: cited from earlier work.
The target of experiment [6] is IRS-1 (Y1179) (Homo sapiens) (UniProt P35568). Conditions: cited from earlier work.
The target in experiment [7] is IRS-1 (Y1012) (Homo sapiens) (UniProt P35568). As to conditions: cited from earlier work.
For experiment [8], the target named is p62DOK1 (Y398) phosphopeptide KEEGpYELPYNP, Rhodamine B-labelled. Kind of experiment: fluorescence polarisation; Rhodamine B-labelled peptide in solution with SH2 domain; Beacon 2000; as previously described [40].
The target in experiment [9] is FGFR3 (Y760) phosphopeptide STDEpYLDLSAP, Rhodamine B-labelled. The description is as above.
The target in experiment [10] is PDGFRb (Y1021) (Homo sapiens) (UniProt P09619). Conditions: cited from earlier work.
Experiment [11] has as its target p130Cas (Y362) phosphopeptide AEDVpYDVPPPA, Rhodamine B-labelled. Put plainly: fluorescence polarisation; Rhodamine B-labelled peptide in solution with SH2 domain; Beacon 2000; as previously described [40].
In experiment [12] the target is IRS-1 (Y896) phosphopeptide SPGEpYVNIEFG, Rhodamine B-labelled. The experiment is described as above.
Experiment [13] addresses IRS-1 (Y1179) phosphopeptide NGLNpYIDLDLV, Rhodamine B-labelled. The description is as above.
The target of experiment [14] is FGFR1 (Y463) phosphopeptide GVSEpYELPEDP, Rhodamine B-labelled. The description is as above.
For experiment [15], the target named is CD150 (Y142) (Homo sapiens) (UniProt P20963). Conditions: cited from earlier work.
The target of experiment [16] is B3AT (Y921) (Homo sapiens) (UniProt P02730). Conditions: cited from earlier work.
Sequence of B3AT (Y921) (Homo sapiens) (P02730 whole entry, looked up): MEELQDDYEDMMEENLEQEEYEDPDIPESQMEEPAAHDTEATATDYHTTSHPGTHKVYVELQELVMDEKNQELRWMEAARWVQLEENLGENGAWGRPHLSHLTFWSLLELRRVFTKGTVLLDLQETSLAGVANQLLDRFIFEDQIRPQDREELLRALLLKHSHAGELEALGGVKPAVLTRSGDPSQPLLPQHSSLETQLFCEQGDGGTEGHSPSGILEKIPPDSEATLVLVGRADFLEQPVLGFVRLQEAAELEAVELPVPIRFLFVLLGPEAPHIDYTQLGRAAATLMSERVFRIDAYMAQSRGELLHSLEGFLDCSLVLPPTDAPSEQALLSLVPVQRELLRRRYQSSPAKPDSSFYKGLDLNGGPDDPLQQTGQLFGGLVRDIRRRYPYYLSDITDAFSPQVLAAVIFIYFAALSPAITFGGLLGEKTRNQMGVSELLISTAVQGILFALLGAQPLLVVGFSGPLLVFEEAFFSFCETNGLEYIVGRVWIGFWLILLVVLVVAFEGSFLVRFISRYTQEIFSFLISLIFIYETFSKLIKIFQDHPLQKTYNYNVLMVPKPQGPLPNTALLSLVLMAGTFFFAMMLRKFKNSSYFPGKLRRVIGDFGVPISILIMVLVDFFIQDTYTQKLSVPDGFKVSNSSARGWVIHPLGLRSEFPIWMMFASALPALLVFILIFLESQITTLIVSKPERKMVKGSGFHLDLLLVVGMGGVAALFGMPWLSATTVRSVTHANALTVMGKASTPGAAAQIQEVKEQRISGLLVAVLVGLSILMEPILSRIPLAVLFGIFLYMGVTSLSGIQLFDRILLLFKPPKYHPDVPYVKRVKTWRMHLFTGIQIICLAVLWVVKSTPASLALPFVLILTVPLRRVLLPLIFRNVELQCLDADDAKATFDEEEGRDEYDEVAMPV

Sequence of Grb2 SH2 (P62993 57-155): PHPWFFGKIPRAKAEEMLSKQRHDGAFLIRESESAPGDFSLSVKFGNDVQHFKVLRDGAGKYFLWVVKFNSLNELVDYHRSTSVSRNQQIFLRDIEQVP
Sequence of ShcA (Y426) (Homo sapiens) (P29353 whole entry, looked up): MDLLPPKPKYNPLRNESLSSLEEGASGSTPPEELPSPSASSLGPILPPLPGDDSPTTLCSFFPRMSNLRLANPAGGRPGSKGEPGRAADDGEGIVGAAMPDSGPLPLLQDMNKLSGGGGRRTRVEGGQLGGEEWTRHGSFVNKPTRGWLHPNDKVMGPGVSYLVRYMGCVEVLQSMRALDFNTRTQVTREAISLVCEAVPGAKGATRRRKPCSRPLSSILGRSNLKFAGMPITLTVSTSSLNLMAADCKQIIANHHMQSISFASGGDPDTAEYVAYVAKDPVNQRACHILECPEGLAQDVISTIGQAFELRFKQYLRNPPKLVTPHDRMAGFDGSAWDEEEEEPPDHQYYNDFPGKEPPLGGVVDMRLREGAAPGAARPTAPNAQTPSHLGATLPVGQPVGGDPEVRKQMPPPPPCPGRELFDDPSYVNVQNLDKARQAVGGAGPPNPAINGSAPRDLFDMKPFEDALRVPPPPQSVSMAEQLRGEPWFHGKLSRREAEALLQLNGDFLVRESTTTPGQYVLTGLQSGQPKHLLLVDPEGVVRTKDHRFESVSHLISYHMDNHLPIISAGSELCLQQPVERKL
Sequence of Plcγ-C SH2 (C-terminal) (P19174 668-756): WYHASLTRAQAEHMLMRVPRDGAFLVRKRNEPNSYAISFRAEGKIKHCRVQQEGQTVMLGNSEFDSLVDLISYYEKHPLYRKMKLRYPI
Sequence of Crk SH2 (P46108 10-121): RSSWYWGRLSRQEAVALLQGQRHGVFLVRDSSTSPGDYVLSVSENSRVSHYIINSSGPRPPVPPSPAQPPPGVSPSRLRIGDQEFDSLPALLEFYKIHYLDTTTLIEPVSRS
Sequence of PDGFRb (Y1021) (Homo sapiens) (P09619 whole entry, looked up, the tested form may be a part): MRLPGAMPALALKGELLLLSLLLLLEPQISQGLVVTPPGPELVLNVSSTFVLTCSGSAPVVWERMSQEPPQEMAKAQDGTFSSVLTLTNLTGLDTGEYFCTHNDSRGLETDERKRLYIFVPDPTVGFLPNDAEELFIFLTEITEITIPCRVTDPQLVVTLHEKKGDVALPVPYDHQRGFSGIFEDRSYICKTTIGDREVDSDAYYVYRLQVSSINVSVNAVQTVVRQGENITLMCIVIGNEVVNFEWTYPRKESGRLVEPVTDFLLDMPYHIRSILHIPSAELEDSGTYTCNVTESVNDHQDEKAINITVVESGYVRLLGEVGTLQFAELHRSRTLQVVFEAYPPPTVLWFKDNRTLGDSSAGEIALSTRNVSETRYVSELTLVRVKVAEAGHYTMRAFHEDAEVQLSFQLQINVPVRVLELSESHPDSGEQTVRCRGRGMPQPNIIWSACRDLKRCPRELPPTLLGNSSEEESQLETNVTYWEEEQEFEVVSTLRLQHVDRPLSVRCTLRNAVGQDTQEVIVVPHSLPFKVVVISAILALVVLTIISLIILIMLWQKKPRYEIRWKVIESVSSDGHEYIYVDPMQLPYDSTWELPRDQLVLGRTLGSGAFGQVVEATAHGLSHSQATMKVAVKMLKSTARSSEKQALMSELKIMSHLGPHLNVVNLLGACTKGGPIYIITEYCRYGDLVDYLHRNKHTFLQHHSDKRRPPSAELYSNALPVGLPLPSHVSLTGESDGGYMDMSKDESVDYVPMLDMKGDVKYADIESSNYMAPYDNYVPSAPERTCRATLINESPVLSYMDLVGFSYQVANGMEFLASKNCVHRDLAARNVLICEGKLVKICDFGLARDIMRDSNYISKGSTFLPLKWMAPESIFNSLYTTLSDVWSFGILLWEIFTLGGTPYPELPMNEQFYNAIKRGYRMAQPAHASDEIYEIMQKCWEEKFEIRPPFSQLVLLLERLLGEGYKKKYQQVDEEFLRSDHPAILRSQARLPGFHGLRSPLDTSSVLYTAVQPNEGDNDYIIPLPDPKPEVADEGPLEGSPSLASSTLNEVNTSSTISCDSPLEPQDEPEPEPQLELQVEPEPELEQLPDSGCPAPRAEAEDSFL
Sequence of Shc1 SH2 (P29353 485-582): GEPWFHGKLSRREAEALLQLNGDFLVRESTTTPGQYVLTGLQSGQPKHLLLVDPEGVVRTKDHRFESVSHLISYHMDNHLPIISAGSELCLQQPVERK
Sequence of p130Cas (Y362) (Homo sapiens) (P56945 whole entry, looked up): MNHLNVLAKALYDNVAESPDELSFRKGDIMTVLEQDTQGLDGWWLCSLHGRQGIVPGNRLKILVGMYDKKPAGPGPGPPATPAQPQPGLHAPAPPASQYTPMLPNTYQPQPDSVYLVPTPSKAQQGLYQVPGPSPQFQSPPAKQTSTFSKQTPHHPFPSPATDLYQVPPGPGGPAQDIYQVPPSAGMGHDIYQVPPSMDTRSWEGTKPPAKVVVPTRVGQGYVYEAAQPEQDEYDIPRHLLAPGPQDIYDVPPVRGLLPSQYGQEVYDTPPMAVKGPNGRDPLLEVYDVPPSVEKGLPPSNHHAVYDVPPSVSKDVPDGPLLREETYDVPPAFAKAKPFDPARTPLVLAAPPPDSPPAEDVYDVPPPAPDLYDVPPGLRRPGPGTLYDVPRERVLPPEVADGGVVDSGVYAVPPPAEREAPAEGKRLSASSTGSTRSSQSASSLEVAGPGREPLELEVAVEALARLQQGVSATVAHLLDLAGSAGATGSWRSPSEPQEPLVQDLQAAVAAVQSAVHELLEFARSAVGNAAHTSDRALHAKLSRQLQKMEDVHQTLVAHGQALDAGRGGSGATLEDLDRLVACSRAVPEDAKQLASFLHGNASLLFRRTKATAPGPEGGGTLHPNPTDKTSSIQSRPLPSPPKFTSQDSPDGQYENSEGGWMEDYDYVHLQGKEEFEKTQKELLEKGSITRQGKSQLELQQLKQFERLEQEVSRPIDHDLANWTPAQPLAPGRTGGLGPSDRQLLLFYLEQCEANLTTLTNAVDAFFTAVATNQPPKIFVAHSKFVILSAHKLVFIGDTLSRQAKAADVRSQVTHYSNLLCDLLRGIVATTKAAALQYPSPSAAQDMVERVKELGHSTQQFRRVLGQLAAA
Sequence of p130Cas (Y664) (Homo sapiens) (P56945 whole entry, looked up): as above
Sequence of CD150 (Y142) (Homo sapiens) (P20963 whole entry, looked up): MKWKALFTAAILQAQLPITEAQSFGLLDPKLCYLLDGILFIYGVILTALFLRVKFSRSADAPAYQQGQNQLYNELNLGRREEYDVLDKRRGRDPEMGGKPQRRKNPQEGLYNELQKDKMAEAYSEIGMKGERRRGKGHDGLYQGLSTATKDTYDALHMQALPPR

Regarding Src SH2 (from UniProt P12931), the Kd in [1] was 35 nM. As to Grb2 SH2 (from UniProt P62993), the Kd in experiment [2] was 35 nM; in experiment [3] it was 35 nM; in experiment [4], 23 nM and 53 nM.

Regarding Crk SH2 (from UniProt P46108), the Kd in [5] is 545 nM. For “Ptpn11 tandem SH2 tandem SH2 (from UniProt Q06124)”, the Kd in experiment [6] is 3 nM.

As to “Ptpn11_N SH2 (N-terminal) (from UniProt Q06124)”, in [7], the Kd is 110000 nM. Substance “GST-Rasa1_N SH2 domain (domain or fragment)” had a Kd in experiment [8] of 410 nM. For “GST-PI3K1_C SH2 domain (domain or fragment)”, the Kd amounted to 2140 nM in experiment [9] and 13000 nM in [8]. As for “Plcγ-C SH2 (C-terminal) (from UniProt P19174)”, the Kd in experiment [10] is 4100 nM. On to “GST-Ptpn11_N SH2 domain (domain or fragment)”, for which the Kd in [11] is greater than 50000 nM; in experiment [9] it was 25000 nM; in experiment [8], greater than 50000 nM; in experiment [12], 2080 nM.

For the substance “GST-PI3K1_N SH2 domain (domain or fragment)”, the Kd is 15000 nM in [13], 1850 nM in experiment [8] and 2680 nM in experiment [12].

With “GST-Rasa1_C SH2 domain (domain or fragment)”, the Kd in experiment [9] was greater than 17000 nM; in [8] it was 1390 nM; in experiment [14], greater than 17000 nM. As for Shc1 SH2 (from UniProt P29353), the Kd in experiment [15] was 50000 nM.

Consider Nck1 SH2 (from UniProt P16333), for which the Kd in [16] was 60 nM.
